Reference: publication doi:10.1101/2020.04.08.026906

Molecular target: C3b (UniProt P01024)
Assay: SPR

Sequence of UniProt P01024 (P01024 whole entry, looked up): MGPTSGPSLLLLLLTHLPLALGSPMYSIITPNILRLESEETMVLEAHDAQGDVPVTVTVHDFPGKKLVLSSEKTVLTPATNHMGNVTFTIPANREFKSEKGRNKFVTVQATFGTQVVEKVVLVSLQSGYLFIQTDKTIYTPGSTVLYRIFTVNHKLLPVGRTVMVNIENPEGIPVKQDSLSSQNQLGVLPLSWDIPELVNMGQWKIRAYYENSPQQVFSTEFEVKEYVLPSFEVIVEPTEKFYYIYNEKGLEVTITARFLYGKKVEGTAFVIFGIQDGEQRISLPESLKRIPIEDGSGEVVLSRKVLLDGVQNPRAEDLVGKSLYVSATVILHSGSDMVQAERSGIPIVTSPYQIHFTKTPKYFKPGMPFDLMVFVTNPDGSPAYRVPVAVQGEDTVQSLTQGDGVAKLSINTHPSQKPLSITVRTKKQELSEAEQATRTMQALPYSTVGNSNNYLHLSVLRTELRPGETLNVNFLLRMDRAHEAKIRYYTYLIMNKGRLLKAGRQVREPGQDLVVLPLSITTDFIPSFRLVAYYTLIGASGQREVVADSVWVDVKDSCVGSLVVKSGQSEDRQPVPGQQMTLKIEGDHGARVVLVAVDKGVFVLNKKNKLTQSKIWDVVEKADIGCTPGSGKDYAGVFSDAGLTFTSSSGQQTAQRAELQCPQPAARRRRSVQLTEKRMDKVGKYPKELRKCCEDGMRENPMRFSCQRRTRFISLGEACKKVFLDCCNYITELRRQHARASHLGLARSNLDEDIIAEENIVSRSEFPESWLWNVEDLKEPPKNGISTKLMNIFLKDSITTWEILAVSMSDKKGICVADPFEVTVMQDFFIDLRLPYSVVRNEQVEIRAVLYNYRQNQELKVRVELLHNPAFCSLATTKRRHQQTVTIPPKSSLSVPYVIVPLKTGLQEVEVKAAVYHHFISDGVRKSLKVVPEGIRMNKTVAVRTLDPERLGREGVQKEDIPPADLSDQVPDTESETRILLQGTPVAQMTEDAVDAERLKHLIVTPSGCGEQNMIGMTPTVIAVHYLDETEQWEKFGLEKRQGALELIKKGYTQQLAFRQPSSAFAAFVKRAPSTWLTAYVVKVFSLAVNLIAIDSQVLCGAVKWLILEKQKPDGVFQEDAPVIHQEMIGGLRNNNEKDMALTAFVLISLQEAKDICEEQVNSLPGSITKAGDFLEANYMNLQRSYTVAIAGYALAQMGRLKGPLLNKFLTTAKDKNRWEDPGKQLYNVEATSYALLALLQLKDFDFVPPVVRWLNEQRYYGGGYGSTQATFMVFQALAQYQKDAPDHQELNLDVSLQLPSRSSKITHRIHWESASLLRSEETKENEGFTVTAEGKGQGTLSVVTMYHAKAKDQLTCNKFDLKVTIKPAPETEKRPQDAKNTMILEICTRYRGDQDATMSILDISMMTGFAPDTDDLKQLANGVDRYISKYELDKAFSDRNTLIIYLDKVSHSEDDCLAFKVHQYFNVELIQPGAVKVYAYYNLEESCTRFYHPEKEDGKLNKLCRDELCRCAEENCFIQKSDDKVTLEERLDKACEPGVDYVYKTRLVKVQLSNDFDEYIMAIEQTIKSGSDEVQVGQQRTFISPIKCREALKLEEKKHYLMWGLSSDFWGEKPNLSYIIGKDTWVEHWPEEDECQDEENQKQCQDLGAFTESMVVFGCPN

KD with anti-FH.07.1 Fab' fragments: 1.9 µM | Kd: 6 µM
Substance: plasma derived Factor H (from UniProt P08603 19-1231) (natural protein)
